According to the supplement of paper PMC7125110:
± gives the standard error. This sample holds only a part of the variants without activity.

B1: glmS ribozyme (parent)
chain: AUAAAAGCGCCAGAACUACAGAAAUGUAGUUGACGAGGAGGAGGUUUAUCGAAUUUUCGGCGGAUGCCUCCAAA

Assays:
Settings in all cases: with glucosamine-6-phosphate
[1] = variants of: B1; experiment: self-cleavage kobs at 40 uM GlcN6P; higher = faster cleavage; RNA array
Summary of the method: (§1)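 Barcoded ribozyme variants, transcribed in situ by E. coli RNA polymerase on sequenced MiSeq chips, were followed via a hybridised Cy3 probe at 37 °C. Glucosamine-6-phosphate ranged from 40 μM to 10 mM in HEPES/KCl/Mg(OAc)2 buffer. kobs came from decay fits to per-tile medians, and kcat and KM from weighted Michaelis–Menten fits.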

[2] = variants of: B1; experiment: self-cleavage kobs at 2500 uM GlcN6P; higher = faster cleavage; RNA array
Summary of the method: as §1

[3] = variants of: B1; experiment: self-cleavage kobs at 160 uM GlcN6P; higher = faster cleavage; RNA array
Summary of the method: as §1

[4] = variants of: B1; experiment: self-cleavage kobs at 640 uM GlcN6P; higher = faster cleavage; RNA array
Summary of the method: as §1

[5] = variants of: B1; experiment: self-cleavage kobs at 10000 uM GlcN6P; higher = faster cleavage; RNA array
Summary of the method: as §1

Variant	self-cleavage kobs at 40 uM GlcN6P [1] [s⁻¹]	self-cleavage kobs at 2500 uM GlcN6P [2] [s⁻¹]	self-cleavage kobs at 160 uM GlcN6P [3] [s⁻¹]	self-cleavage kobs at 640 uM GlcN6P [4] [s⁻¹]	self-cleavage kobs at 10000 uM GlcN6P [5] [s⁻¹]
AUAAAAGCGCCAGAACUACAGAAAUGUAGUUGACGAGGAGGAGGUUUAUGGAAUUUUCGGCGGAUUCCUCCAAA	0.000495 ± 0.00015	0.000123 ± 5.1e-05			
AUAAAAGCGCCAGAACUACAGAAAUGUAGUUGACGAGGAGGAGGUUUAUCGUAUUUUCAGCGGAUGCCUCCAAA	< 1e-05	< 1e-05	< 1e-05	< 1e-05	< 1e-05
AUAAAAGCGCCAGAACUACAGAAAUGUAGUUGACGAGGAGGAGGUUUAUCGUAUUUUCGGCGGGUGCCACCAAA	< 1e-05				
AUAAAAGCGCCAGAACUACAGAAAUGUAGUUGACGAGGAGGAGGUUUAUGGAAUUUAGGGCGGAUGCCUCCAAA	8.29e-05 ± 2.4e-05	7.43e-05 ± 2.1e-05	0.000517 ± 0.00012	0.000297 ± 9.4e-05	
AUAAAAGCGCCAGAACUACAGAAAUGUAGUUGACGAGGAGGAGGUUUAUCGCAUUUUCGUCGGAUGCCUCCAAA	< 1e-05				< 1e-05
AUAAAAGCGCCAGAACUACAGAAAUGUAGUUGACGAGGAGGAGGUUUAUCGGCUUUUCGGCGGAUGCCUCCAAA	< 1e-05				
AUAAAAGCGCCAGAACUACAGAAAUGUAGUUGACGAGGAGGAGGUUUAUCGCAUUUUCGUCGGAUGCCCCCAAA	< 1e-05				
AUAAAAGCGCCAGAACUACAGAAAUGUAGUUGACGAGGAGGAGGUUUAUCCAAUUUUAGGCGGAUGCCUACAAA	< 1e-05				
AUAAAAGCGCCAGAACUACAGAAAUGUAGUUGACGAGGAGGAGGUUUAUGGAAUUUUCGGCGGAUACCUACAAA	7.79e-05 ± 2.3e-05				
AUAAAAGCGCCAGAACUACAGAAAUGUAGUUGACGAGGAGGAGGUUUAUCGUAUUUUCGACGGAUGCCUCCAAA	< 1e-05		< 1e-05	< 1e-05	< 1e-05
AUAAAAGCGCCAGAACUACAGAAAUGUAGUUGACGAGGAGGAGGUUUAUCCAAUGUUCGGCGGAUGCCUCCAAA	< 1e-05	< 1e-05	< 1e-05	< 1e-05	< 1e-05
AUAAAAGCGCCAGAACUACAGAAAUGUAGUUGACGAGGAGGAGGUUUAUGGAAUUUUCCGCGGAUGGCUCCAAA	0.00018 ± 5.4e-05				0.000119 ± 2.8e-05
AUAAAAGCGCCAGAACUACAGAAAUGUAGUUGACGAGGAGGAGGUUUAUCGCAUUUUCGGCCGAUGCCUCCAAA	< 1e-05	< 1e-05	< 1e-05	< 1e-05	< 1e-05
AUAAAAGCGCCAGAACUACAGAAAUGUAGUUGACGAGGAGGAGGUUUAUCGCAUUAUCGGCGGAUGCCUCCAAA	< 1e-05			< 1e-05	
AUAAAAGCGCCAGAACUACAGAAAUGUAGUUGACGAGGAGGAGGUUUAUCAAAUUUUCGGCGGAUGCCCCCAAA	< 1e-05				< 1e-05
